From IntAct's records for PubMed 15156152

B1: Integrin beta-5 (Homo sapiens), P18084 (parent)
chain: MPRAPAPLYACLLGLCALLPRLAGLNICTSGSATSCEECLLIHPKCAWCSKEDFGSPRSITSRCDLRANLVKNGCGGEIESPASSFHVLRSLPLSSKGSGSAGWDVIQMTPQEIAVNLRPGDKTTFQLQVRQVEDYPVDLYYLMDLSLSMKDDLDNIRSLGTKLAEEMRKLTSNFRLGFGSFVDKDISPFSYTAPRYQTNPCIGYKLFPNCVPSFGFRHLLPLTDRVDSFNEEVRKQRVSRNRDAPEGGFDAVLQAAVCKEKIGWRKDALHLLVFTTDDVPHIALDGKLGGLVQPHDGQCHLNEANEYTASNQMDYPSLALLGEKLAENNINLIFAVTKNHYMLYKNFTALIPGTTVEILDGDSKNIIQLIINAYNSIRSKVELSVWDQPEDLNLFFTATCQDGVSYPGQRKCEGLKIGDTASFEVSLEARSCPSRHTEHVFALRPVGFRDSLEVGVTYNCTCGCSVGLEPNSARCNGSGTYVCGLCECSPGYLGTRCECQDGENQSVYQNLCREAEGKPLCSGRGDCSCNQCSCFESEFGKIYGPFCECDNFSCARNKGVLCSGHGECHCGECKCHAGYIGDNCNCSTDISTCRGRDGQICSERGHCLCGQCQCTEPGAFGEMCEKCPTCPDACSTKRDCVECLLLHSGKPDNQTCHSLCRDEVITWVDTIVKDDQEAVLCFYKTAKDCVMMFTYVELPSGKSNLTVLREPECGNTPNAMTILLAVVGSILLVGLALLAIWKLLVTIHDRREFAKFQSERSRARYEMASNPLYRKPISTHTVDFTFNKFNKSYNGTVD

Variants of: B1
Conditions: with myo10_mouse Myo10, F8VQB6
Chain of myo10_mouse Myo10, F8VQB6 (F8VQB6 whole entry): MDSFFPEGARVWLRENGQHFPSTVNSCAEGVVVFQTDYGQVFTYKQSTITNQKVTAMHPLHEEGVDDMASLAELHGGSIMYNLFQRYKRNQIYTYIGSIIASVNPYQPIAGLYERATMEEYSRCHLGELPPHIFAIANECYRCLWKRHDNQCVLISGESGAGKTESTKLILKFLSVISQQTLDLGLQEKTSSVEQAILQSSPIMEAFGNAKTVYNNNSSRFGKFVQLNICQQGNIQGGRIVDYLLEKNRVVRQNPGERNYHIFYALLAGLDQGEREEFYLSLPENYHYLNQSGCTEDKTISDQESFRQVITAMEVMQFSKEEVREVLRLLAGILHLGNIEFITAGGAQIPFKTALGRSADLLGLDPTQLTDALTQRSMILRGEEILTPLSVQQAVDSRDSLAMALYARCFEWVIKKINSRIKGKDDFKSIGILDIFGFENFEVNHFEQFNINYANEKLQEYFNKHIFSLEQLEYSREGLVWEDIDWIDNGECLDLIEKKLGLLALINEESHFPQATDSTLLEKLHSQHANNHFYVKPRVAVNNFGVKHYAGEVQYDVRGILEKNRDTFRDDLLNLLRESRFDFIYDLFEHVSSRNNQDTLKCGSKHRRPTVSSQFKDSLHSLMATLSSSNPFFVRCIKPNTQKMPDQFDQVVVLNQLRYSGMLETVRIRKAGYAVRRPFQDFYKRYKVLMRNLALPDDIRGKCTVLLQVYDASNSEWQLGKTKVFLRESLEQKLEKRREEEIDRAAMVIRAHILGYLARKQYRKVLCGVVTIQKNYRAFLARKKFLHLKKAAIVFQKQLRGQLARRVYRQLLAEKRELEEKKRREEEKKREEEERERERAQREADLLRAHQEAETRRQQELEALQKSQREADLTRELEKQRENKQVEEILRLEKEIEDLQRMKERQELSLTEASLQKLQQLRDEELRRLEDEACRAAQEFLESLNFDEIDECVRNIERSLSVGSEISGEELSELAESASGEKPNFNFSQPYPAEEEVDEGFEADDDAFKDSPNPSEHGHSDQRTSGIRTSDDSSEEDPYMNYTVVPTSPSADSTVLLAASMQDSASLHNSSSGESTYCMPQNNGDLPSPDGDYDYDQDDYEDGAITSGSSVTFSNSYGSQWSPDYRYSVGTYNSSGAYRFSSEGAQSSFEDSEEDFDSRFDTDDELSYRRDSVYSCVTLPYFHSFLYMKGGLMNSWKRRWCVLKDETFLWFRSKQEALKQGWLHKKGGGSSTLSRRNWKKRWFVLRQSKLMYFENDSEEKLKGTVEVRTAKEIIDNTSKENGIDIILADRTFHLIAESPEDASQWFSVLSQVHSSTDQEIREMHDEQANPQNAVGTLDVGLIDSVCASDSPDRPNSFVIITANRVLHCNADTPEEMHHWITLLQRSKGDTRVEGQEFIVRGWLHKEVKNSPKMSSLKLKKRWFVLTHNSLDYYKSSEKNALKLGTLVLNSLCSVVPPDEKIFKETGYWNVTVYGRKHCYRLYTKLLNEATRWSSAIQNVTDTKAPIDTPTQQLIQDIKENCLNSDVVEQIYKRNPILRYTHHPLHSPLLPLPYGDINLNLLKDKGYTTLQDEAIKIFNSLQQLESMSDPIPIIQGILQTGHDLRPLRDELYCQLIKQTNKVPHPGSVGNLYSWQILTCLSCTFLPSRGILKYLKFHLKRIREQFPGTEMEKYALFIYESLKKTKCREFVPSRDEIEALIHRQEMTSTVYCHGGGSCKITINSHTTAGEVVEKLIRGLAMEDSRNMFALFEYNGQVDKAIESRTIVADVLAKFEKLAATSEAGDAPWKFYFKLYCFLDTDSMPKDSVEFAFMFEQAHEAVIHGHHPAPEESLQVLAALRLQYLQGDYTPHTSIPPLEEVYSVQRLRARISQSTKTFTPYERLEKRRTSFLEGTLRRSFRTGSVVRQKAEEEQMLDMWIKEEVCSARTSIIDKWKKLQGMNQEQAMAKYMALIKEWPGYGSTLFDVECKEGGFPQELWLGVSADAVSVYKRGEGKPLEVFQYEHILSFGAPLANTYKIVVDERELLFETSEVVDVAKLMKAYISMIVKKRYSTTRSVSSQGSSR

Row | Variant | effect of a mutation on the interaction
1 | Y774A | disrupting interaction
2 | L773A | decreasing interaction
3 | P772A | disrupting interaction

Variants of: B1
Conditions: with myo10_bovin MYO10, P79114
Chain of myo10_bovin MYO10, P79114 (P79114 whole entry): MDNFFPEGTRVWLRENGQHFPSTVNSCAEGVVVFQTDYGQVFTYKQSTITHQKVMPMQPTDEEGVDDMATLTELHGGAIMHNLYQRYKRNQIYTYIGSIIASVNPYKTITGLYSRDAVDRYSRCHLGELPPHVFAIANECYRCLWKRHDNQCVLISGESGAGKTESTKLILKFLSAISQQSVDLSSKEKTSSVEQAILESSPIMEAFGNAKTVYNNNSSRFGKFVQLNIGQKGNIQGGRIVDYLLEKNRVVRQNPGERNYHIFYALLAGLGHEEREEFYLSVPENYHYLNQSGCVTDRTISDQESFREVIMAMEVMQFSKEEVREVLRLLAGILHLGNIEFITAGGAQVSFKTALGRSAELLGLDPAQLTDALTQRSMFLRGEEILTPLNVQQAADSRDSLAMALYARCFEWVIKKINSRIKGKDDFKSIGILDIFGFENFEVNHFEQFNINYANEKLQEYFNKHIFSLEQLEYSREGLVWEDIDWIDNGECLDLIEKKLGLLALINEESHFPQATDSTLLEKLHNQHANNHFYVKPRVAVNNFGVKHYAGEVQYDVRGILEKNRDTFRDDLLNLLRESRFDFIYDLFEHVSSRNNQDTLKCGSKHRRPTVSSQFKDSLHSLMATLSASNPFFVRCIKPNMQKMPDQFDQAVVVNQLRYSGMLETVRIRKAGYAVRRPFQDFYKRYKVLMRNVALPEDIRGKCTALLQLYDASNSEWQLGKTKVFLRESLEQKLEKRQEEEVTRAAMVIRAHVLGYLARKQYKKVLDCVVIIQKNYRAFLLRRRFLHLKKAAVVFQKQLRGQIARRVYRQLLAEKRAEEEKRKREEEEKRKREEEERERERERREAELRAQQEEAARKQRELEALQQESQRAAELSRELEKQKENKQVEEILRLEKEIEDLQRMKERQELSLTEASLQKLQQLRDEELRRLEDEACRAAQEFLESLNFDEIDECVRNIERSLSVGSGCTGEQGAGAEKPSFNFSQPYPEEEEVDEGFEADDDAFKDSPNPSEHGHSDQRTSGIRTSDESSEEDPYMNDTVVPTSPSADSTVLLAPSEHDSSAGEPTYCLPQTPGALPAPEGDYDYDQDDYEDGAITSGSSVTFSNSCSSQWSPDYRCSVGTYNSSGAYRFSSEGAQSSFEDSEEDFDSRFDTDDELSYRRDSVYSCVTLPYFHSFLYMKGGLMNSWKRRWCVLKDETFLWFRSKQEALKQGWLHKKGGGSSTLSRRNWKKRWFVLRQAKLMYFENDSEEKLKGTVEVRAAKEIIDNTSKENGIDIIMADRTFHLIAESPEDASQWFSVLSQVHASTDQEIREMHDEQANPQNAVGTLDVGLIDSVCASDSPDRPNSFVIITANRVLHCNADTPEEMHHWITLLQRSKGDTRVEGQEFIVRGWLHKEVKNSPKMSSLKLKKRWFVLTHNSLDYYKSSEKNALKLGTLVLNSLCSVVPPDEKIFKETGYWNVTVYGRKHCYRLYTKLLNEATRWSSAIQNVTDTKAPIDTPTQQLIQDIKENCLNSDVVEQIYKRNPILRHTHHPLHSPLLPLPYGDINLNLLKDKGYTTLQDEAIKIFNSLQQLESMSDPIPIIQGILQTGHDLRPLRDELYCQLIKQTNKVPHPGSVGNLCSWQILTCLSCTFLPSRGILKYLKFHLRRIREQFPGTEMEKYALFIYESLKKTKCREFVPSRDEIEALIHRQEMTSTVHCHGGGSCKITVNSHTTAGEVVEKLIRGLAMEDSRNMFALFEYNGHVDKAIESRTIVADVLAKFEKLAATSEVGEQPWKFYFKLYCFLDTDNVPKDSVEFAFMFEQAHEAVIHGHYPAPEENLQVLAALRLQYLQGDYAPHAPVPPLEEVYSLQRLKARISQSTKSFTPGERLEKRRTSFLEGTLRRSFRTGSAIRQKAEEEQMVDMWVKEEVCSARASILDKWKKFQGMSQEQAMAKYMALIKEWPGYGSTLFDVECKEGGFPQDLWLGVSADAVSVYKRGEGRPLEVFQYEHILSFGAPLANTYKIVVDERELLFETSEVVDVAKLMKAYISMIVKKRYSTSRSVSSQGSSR

Row | Variant | effect of a mutation on the interaction
4 | P772A | disrupting interaction
